Test results taken from paper PMC12657241.
pKd: −log10 of the molar value.

Key:
[1] = molecular target: OppA-iso, evolved OppA variant (E. coli) (UniProt P23843); experiment: MST
[2] = molecular target: wild-type OppA, periplasmic binding protein of the oligopeptide permease (Opp) ABC transporter (E. coli) (UniProt P23843); experiment: MST

Row | pKd [1] | pKd [2] | Substance
1 | 4.43 | 4.30 | G-SisoK, isopeptide-linked tripeptide
2 | 3.56 | 4.15 | linear GSK tripeptide
3 | 3.52 | 3.52 | SisoK, isopeptide-linked dipeptide (serine on the ε-amine of lysine)
